The experiment addresses cation-independent mannose 6-phosphate (M6P) receptor (MPR) (UniProt P11717). In words: cell-based or functional assay.
Chain of UniProt P11717 (P11717 41-2491): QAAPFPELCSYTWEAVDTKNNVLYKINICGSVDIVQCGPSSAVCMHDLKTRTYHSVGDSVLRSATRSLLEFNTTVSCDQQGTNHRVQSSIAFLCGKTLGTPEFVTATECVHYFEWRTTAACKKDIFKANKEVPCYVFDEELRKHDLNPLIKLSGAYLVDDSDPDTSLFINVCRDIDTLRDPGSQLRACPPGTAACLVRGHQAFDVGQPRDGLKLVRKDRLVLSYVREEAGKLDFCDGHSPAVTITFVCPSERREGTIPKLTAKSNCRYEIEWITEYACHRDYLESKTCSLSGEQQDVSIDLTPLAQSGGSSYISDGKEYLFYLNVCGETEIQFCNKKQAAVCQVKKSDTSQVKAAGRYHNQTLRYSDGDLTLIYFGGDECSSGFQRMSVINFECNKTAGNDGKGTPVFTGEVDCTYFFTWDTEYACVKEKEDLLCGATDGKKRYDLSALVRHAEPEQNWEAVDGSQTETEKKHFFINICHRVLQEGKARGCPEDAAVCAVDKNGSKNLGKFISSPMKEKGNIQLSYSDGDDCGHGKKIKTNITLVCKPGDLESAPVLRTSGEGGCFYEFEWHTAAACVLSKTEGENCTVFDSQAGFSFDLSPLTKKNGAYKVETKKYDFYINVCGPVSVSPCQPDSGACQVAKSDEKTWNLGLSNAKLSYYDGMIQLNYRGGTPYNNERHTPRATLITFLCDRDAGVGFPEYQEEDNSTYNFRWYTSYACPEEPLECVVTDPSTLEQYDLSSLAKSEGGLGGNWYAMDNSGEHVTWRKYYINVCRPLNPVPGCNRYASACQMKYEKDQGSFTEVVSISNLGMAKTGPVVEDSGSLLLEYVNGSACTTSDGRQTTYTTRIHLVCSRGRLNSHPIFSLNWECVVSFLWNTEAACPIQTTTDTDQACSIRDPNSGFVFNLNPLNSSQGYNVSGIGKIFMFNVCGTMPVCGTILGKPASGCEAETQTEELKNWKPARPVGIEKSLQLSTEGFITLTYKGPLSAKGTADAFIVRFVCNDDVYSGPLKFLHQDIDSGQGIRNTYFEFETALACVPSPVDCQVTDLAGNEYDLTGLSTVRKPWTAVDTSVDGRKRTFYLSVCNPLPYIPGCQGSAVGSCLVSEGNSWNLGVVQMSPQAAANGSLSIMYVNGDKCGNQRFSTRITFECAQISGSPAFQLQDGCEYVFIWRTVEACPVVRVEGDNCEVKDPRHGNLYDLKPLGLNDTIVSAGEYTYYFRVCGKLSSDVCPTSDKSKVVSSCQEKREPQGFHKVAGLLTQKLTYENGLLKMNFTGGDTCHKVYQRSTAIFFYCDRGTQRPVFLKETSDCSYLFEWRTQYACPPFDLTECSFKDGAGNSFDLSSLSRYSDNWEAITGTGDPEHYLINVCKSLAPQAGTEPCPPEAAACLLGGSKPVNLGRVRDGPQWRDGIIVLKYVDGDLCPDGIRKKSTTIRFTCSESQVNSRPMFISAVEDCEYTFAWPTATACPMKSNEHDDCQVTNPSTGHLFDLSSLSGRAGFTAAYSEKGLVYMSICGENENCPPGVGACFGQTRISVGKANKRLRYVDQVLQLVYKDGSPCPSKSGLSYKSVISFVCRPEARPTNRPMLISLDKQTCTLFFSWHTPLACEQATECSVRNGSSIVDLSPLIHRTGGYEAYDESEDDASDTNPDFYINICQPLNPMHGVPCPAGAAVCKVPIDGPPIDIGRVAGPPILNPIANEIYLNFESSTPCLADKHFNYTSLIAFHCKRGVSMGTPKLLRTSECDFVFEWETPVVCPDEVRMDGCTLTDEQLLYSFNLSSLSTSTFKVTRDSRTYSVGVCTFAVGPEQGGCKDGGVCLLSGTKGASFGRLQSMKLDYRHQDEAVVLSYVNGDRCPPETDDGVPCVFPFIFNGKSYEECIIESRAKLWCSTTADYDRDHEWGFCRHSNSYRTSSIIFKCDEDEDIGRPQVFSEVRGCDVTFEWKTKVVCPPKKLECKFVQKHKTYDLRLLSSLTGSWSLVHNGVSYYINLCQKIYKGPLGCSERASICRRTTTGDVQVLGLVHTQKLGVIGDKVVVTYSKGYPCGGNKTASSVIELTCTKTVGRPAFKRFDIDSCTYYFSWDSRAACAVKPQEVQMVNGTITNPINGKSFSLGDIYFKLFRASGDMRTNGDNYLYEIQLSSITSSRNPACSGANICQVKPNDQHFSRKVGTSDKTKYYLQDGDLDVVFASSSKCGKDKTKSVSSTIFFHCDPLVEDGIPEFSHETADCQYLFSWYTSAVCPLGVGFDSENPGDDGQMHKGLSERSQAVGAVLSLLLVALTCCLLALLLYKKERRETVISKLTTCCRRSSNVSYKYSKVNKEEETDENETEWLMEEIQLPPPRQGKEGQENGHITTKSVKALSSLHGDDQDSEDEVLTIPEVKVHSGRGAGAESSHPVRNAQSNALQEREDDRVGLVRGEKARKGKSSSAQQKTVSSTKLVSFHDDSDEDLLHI

Substance “alpha-L-iduronidase (IDUA) released by erythroid-induced MEL-KIiG cells (human IDUA cDNA) (from UniProt P35475 28-653) (enzyme)” came in with an intracellular IDUA level in LCLmps cells after uptake, relative to wild-type (% of wild-type levels) of 10 and an intracellular IDUA specific activity in LCLmps cells after 3 hr uptake from conditioned medium of 0.8 U/mg.

These data come from patent US20170327844A1.
